Test results reported in patent US20240277871A1 (University of Pennsylvania, published 2024).

B1: rhesus macaque anti-SIV mac251 gp120 IgG-201 immunoadhesin (201IA) (Fc fusion)
chain: EVQLLESGPGLVKPSETLSLTCAVSGLSISSDFSWAWIRQTPGKALEYVGYIRGNTGDTYYNPSLKSRLTISKDTSKNQIYLNLSSVTAGDAAVYYCARDRVCDDDYGYYYTEVCFGLDSWGQGIVVTVSSGGGGSGGGGSGGGGSAELVMTQSPLSLSVAPGQTASISCRSSQSLDYANGNTYLSWFHQRPGQPPRRLIYQISNRDSGVPDRFSGSGAGTEFTLRISRMESDDVGIYYCGQGTTFPRTFGQGTKVEIKTCGGGSKPPTCPPCTSPELLGGPSVFLFPPKPKDTLMISRTPEVTCVVVDVSQEDPDVKFNWYVNGAEVHHAQTKPRETQYNSTYRVVSVLTVTHQDWLNGKEYTCKVSNKALPAPIQKTISKDKGQPREPQVYTLPPSREELTKNQVSLTCLVKGFYPSDIVVEWESSGQPENTYKTTPPVLDSDGSYFLYSKLTVDKSRWQQGNVFSCSVMHEALHNHYTQKSLSLSPGK
notes: also called 201 anti-SIV immunoadhesin; 201IA standard protein produced in-house
B2: 201IA(I253A) (Fc fusion)
chain: EVQLLESGPGLVKPSETLSLTCAVSGLSISSDFSWAWIRQTPGKALEYVGYIRGNTGDTYYNPSLKSRLTISKDTSKNQIYLNLSSVTAGDAAVYYCARDRVCDDDYGYYYTEVCFGLDSWGQGIVVTVSSGGGGSGGGGSGGGGSAELVMTQSPLSLSVAPGQTASISCRSSQSLDYANGNTYLSWFHQRPGQPPRRLIYQISNRDSGVPDRFSGSGAGTEFTLRISRMESDDVGIYYCGQGTTFPRTFGQGTKVEIKTCGGGSKPPTCPPCTSPELLGGPSVFLFPPKPKDTLMASRTPEVTCVVVDVSQEDPDVKFNWYVNGAEVHHAQTKPRETQYNSTYRVVSVLTVTHQDWLNGKEYTCKVSNKALPAPIQKTISKDKGQPREPQVYTLPPSREELTKNQVSLTCLVKGFYPSDIVVEWESSGQPENTYKTTPPVLDSDGSYFLYSKLTVDKSRWQQGNVFSCSVMHEALHNHYTQKSLSLSPGK
notes: No leader limits are stated; Expressed in HEK293 cells and purified on Protein A; also called I253A 201IA mutant

Molecular target: T1, mac251 gp120 (Immune Technology Corp.) (SIV mac251, UniProt P08810 20-527)
T1 construct: Coated on ELISA plates at 2 ug/mL; also called SIV mac251 gp120
T1 sequence: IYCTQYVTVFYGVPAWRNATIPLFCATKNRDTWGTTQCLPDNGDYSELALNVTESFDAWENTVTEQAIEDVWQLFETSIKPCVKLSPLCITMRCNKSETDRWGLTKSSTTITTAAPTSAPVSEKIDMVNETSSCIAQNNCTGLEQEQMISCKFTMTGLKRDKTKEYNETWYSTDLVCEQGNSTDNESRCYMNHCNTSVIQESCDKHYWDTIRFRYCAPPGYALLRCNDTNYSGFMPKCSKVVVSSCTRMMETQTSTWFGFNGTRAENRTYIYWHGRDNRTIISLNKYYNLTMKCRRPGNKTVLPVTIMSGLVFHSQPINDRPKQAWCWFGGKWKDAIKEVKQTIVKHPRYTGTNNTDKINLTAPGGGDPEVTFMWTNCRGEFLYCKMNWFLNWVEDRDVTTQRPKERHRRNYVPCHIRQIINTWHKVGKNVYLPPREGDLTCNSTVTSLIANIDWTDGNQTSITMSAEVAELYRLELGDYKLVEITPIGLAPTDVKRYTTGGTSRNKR
Assay: ELISA, mac251 gp120 coated at 2 ug/mL, immunoadhesin at 50 ng/mL, detected with anti-human IgG-biotin and streptavidin-HRP

| Binder | binding result |
| --- | --- |
| B1 | binds |
| B2 | binds |
